Assay results as given in US20160168251A1 (MorphoSys, published 2016).

How the values were obtained:
[1] = target: T1, human NPRC on HEK293 cells in the presence of BNP (human, UniProt P17342 27-541; P16860 103-134); assay: FACS, HEK NPRC cells with 100 nM BNP
T1 construct: whole, on cells;mature; also called HEK NPRC cells + 100 nM BNP
T1 sequence (looked up): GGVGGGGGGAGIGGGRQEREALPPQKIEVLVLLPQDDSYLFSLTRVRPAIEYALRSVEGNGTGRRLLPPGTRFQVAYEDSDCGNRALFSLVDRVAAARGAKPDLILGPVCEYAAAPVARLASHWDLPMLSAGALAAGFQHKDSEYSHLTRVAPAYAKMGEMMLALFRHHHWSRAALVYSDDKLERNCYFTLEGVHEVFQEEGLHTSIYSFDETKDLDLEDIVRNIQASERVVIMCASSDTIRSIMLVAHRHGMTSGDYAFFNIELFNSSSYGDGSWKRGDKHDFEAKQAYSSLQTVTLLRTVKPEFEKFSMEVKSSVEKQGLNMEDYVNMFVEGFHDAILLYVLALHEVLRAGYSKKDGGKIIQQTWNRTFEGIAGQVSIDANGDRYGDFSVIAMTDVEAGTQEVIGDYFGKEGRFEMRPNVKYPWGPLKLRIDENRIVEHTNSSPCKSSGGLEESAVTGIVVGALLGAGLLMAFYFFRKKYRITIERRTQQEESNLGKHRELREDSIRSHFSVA
T1 sequence (peptide, looked up): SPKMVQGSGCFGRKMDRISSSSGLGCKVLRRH
Protocol: (§1) HEK NPRA cells are detached with Accutase (PAA Laboratories GmbH, Cat. No. L11-007, Austria), harvested by centrifugation (900 rpm, 4 minutes) and resuspended in FACS buffer (PBS/3% FCS/0.02% NaN3) to a final concentration of 10⁶ cells/ml. 100 μl of the cell suspension is transferred to each well of a 96 round bottom plate (TC Microwell 96U, Nunc). […] Cells are washed in 150 μl of FACS buffer, pelleted and resuspended in 50 μl of the solution containing the primary antibody comprising a BEL extract of Fabs, a diluted BEL extract or purified antibody diluted in FACS buffer and incubated on ice for 30 min. Cells are washed again in FACS buffer and resuspended in 50 μl of FACS buffer containing the secondary antibody (R-Phycoerythrin-conjugated Affipure F(ab′)₂ Fragment Goat Anti-Human IgG, Dianova) and incubated on ice for 45 min. Cells are washed twice with FACS buffer and resuspended in 200 μl of FACS buffer for analysis in the FACS Array (BD Biosciences).

[2] = target: T2, human NPRB on HEK293 cells in the presence of CNP (human, UniProt P20594 23-1047; P23582 105-126); assay: FACS, HEK NPRB cells with 100 nM CNP
T2 construct: whole, on cells;mature; also called HEK NPRB cells + 100 nM CNP
T2 sequence (P23582 105-126 limits assumed, one chain of several): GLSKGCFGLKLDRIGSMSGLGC
Protocol: as §1

[3] = target: T3, human NPRC on HEK293 cells, without added ligand (human, UniProt P17342 27-541); assay: FACS, HEK NPRC cells without ligand
T3 construct: whole, on cells; also called HEK NPRC cells; natriuretic peptide receptor C
T3 sequence (looked up): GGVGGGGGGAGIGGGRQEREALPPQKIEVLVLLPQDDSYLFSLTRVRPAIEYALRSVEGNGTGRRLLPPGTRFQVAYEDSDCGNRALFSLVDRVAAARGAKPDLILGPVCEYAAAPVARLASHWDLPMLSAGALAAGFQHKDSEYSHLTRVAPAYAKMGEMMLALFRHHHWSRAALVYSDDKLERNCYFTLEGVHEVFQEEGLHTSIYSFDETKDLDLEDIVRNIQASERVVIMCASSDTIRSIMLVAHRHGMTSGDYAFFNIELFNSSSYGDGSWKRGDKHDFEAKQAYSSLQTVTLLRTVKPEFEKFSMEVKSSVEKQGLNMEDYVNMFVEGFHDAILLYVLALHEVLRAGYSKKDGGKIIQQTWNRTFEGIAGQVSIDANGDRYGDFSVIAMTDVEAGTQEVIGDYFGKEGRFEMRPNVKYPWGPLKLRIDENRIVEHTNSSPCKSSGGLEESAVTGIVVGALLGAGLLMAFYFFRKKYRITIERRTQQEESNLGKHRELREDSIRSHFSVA
Protocol: as §1

[4] = target: T4, human NPRA on HEK293 cells bound to ANP (human, UniProt P01160 124-151); assay: cell-based or functional assay
T4 sequence: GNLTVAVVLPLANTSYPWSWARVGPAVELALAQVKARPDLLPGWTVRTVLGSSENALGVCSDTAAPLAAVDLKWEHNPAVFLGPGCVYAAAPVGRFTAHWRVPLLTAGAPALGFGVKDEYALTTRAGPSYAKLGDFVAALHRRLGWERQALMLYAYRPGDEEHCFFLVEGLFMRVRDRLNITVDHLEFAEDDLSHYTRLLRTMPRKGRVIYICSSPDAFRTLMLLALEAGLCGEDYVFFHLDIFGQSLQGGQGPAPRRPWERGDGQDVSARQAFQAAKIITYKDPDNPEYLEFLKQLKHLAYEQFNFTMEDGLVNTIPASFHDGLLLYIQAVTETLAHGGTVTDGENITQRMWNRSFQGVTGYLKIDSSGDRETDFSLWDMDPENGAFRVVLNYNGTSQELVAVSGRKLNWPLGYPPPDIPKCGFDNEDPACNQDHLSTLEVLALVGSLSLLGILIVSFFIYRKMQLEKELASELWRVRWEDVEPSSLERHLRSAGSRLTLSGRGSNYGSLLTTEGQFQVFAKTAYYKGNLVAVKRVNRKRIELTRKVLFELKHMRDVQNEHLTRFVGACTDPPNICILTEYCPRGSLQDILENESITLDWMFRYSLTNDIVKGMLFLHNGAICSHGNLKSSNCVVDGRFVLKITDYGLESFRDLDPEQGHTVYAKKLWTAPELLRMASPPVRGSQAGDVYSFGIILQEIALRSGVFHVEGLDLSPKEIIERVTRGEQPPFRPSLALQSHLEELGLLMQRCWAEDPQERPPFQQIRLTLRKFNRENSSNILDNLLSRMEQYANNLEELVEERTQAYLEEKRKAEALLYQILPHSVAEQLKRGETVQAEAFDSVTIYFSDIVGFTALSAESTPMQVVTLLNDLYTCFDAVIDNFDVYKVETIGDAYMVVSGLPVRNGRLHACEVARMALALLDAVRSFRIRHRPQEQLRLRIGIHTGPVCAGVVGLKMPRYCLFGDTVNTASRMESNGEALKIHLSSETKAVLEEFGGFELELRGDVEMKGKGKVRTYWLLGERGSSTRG
T4 sequence (peptide): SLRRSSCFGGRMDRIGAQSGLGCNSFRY

[5] = target: T4, human NPRA on HEK293 cells bound to ANP; assay: FACS, IgG4_Pro on HEK NPRA cells in the presence of 100 nM ANP
Protocol: as §1

[6] = target: T5, human NPRC on HEK293 cells in the presence of ANP (human, UniProt P17342 27-541; P01160 124-151); assay: FACS, HEK NPRC cells with 100 nM ANP
T5 construct: whole, on cells;mature; also called HEK NPRC cells + 100 nM ANP
T5 sequence (looked up): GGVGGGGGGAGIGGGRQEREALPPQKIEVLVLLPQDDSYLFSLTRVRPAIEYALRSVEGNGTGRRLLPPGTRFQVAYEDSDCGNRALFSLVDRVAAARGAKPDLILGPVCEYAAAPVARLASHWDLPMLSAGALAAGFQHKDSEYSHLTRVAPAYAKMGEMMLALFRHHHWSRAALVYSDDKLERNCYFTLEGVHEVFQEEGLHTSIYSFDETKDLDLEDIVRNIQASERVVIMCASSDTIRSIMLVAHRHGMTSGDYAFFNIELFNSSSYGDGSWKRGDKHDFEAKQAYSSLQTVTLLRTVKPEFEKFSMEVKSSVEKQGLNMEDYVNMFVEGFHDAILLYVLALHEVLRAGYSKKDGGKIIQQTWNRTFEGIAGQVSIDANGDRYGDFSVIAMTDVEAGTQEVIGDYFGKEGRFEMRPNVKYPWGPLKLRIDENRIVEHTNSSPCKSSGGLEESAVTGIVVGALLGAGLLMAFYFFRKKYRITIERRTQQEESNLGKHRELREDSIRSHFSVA
T5 sequence (peptide, looked up): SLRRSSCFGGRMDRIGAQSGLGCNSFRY
Protocol: as §1

[7] = target: T6, human NPRB on HEK293 cells, without added ligand (human, UniProt P20594 23-1047); assay: FACS, HEK NPRB cells without ligand
T6 construct: whole, on cells; also called HEK NPRB cells; natriuretic peptide receptor B
T6 sequence (looked up): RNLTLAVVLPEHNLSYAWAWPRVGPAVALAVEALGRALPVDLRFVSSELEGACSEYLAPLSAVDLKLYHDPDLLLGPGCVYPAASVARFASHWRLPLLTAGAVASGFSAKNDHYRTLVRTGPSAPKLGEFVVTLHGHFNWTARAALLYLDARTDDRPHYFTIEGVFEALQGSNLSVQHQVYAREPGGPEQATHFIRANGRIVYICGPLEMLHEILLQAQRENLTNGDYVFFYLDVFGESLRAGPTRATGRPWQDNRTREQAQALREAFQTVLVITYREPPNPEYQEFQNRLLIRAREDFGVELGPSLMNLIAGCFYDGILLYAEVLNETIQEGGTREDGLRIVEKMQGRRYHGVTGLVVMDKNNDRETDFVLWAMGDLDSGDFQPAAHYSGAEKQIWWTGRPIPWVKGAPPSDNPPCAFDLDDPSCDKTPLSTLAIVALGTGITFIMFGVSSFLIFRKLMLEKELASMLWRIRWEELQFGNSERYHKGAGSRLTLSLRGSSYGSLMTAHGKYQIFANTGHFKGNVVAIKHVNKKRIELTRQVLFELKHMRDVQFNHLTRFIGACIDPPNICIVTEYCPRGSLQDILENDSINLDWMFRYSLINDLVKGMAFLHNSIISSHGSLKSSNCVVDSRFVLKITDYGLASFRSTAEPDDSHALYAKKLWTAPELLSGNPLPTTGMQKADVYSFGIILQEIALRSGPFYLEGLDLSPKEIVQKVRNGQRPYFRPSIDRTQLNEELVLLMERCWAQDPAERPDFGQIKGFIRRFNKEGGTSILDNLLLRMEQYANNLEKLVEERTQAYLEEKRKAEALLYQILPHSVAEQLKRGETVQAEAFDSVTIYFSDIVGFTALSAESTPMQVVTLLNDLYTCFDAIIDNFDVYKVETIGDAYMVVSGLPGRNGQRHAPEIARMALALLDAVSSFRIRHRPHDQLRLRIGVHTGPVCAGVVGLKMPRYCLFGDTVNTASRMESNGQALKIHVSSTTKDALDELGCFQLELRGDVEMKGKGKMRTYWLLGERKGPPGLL
Protocol: as §1

[8] = target: T7, human NPRA on HEK293 cells, without added ligand (human, UniProt P16066 33-1061); assay: FACS, HEK NPRA cells without ligand
T7 construct: a signal peptide is not delimited; also called HEK NPRA cells; HEK hNPRA cells
T7 sequence: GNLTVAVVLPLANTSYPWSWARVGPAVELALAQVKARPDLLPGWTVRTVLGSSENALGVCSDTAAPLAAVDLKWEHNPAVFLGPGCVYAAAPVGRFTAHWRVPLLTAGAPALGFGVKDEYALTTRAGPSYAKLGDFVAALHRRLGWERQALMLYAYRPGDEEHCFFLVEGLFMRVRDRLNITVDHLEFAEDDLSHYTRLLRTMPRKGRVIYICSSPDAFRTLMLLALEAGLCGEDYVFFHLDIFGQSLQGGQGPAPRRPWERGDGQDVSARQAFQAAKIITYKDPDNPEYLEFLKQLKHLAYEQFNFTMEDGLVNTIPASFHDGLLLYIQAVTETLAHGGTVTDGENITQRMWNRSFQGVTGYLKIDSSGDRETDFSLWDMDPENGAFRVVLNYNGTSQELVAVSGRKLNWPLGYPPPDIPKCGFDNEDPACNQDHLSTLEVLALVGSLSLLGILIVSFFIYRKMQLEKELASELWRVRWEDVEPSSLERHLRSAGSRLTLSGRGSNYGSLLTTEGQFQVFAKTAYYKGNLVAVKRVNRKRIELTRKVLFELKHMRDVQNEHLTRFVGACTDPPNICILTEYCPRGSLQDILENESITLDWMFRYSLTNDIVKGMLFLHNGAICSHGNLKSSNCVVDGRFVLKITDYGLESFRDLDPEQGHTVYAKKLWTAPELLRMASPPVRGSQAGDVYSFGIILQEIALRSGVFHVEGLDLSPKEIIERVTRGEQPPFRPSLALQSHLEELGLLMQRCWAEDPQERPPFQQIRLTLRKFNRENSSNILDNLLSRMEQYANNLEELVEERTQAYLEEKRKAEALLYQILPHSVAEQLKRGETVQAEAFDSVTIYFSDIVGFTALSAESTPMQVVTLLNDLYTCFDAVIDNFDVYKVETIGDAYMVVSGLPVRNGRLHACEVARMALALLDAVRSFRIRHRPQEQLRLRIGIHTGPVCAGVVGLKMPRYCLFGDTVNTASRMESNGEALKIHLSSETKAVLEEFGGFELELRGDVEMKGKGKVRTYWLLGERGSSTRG

[9] = target: T4, human NPRA on HEK293 cells bound to ANP; assay: cell-based or functional assay; remark: listed apart in the source
[10] = target: T4, human NPRA on HEK293 cells bound to ANP; assay: FACS, HEK NPRA cells with 100 nM ANP, IgG4_Pro format

B1: 5504 IgG4_Pro (antibody, V domains shown)
VH: QVQLQQSGPGLVKPSQTLSLTCAISGDSVSSRSASWSWIRQSPGRGLEWLGRIYYRSKWYNDYAVSVKSRITINPDTSKNQFSLQLNSVTPEDTAVYYCARMDVPSFRYFDVWGQGTLVTVSS
VL: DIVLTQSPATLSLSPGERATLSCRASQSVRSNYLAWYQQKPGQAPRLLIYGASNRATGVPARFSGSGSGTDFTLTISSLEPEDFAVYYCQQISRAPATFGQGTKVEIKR
notes: Human IgG4_Pro
[1]
  binding result: no binding (tested: 20 nM)
[2]
  binding result: no binding (tested: 20 nM)
[3]
  binding result: no binding (tested: 20 nM)
[4]
  fold increase in the potency of ANP (cGMP, HEK NPRA cells, 200 nM IgG4_Pro): ≤ 10 fold
[5]
  EC50: 0.56 nM
[6]
  binding result: no binding (tested: 20 nM)
[7]
  binding result: no binding (tested: 20 nM)
[8]
  binding result: no binding (tested: 20 nM)
[9]
  cGMP EC50 (nM), titration of the antibody on HEK NPRA cells with 200 pM ANP: 1.2 nM
[10]
  EC50 (read off the curve): ~0.5 nM

B2: 5507 Fab (Fab, V domains shown)
VH: QVQLQQSGPGLVKPSQTLSLTCAISGDSVSSRSASWSWIRQSPGRGLEWLGRIYYRSKWYNDYAVSVKSRITINPDTSKNQFSLQLNSVTPEDTAVYYCARMDVPSFRYFDVWGQGTLVTVSS
VL: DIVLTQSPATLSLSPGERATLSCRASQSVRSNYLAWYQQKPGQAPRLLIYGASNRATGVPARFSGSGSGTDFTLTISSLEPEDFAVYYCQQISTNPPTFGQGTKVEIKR
[4]
  EC50 of ANP, cGMP production in HEK NPRA cells, with 400 nM Fab: 0.5 to 0.6 nM

B3: 5504 Fab (Fab, V domains shown)
VH: QVQLQQSGPGLVKPSQTLSLTCAISGDSVSSRSASWSWIRQSPGRGLEWLGRIYYRSKWYNDYAVSVKSRITINPDTSKNQFSLQLNSVTPEDTAVYYCARMDVPSFRYFDVWGQGTLVTVSS
VL: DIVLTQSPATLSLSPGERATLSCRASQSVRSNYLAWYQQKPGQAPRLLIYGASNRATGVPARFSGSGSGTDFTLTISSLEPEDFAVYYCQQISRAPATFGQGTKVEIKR
[4]
  EC50 of ANP, cGMP production in HEK NPRA cells, with 400 nM Fab: 0.3 nM
  factor by which the potency of ANP is enhanced (cGMP, 400 nM Fab): 10 fold

B4: 5514 Fab (Fab, V domains shown)
VH: QVQLQQSGPGLVKPSQTLSLTCAISGDSVSSRSASWSWIRQSPGRGLEWLGRIYYRSKWYNDYAVSVKSRITINPDTSKNQFSLQLNSVTPEDTAVYYCARMDVPSFRYFDVWGQGTLVTVSS
VL: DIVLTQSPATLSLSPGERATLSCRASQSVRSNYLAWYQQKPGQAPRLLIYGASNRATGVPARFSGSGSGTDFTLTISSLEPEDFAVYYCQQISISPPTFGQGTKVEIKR
[4]
  EC50 of ANP, cGMP production in HEK NPRA cells, with 400 nM Fab: 0.5 to 0.6 nM

B5: 5513 Fab (Fab, V domains shown)
VH: QVQLQQSGPGLVKPSQTLSLTCAISGDSVSSRSASWSWIRQSPGRGLEWLGRIYYRSKWYNDYAVSVKSRITINPDTSKNQFSLQLNSVTPEDTAVYYCARMDVPSFRYFDVWGQGTLVTVSS
VL: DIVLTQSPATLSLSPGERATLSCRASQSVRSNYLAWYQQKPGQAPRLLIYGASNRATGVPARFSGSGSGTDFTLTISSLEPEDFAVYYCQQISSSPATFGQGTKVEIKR
[4]
  EC50 of ANP, cGMP production in HEK NPRA cells, with 400 nM Fab: 0.5 to 0.6 nM
